{
  "source": "patent US9040062B2",
  "about": "“Preparation for treatment of spinal cord injury” (SUMITOMO DAINIPPON PHARMA CO., LTD., priority 2010, dated 2015)",
  "origin": "cited, not measured here",
  "tested_on": "cultural neuron",
  "details": "short time",
  "data": [
    {"molecule": "semaphorin 3A: endogenous protein that retracts the nerve growth cone and suppresses axonal growth (protein, UniProt Q14563 21-771, looked up) Semaphorin-3A: NYQNGKNNVPRLKLSYKEMLESNNVITFNGLANSSSYHTFLLDEERSRLYVGAKDHIFSFDLVNIKDFQKIVWPVSYTRRDECKWAGKDILKECANFIKVLKAYNQTHLYACGTGAFHPICTYIEIGHHPEDNIFKLENSHFENGRGKSPYDPKLLTASLLIDGELYSGTAADFMGRDFAIFRTLGHHHPIRTEQHDSRWLNDPKFISAHLISESDNPEDDKVYFFFRENAIDGEHSGKATHARIGQICKNDFGGHRSLVNKWTTFLKARLICSVPGPNGIDTHFDELQDVFLMNFKDPKNPVVYGVFTTSSNIFKGSAVCMYSMSDVRRVFLGPYAHRDGPNYQWVPYQGRVPYPRPGTCPSKTFGGFDSTKDLPDDVITFARSHPAMYNPVFPMNNRPIVIKTDVNYQFTQIVVDRVDAEDGQYDVMFIGTDVGTVLKVVSIPKETWYDLEEVLLEEMTVFREPTAISAMELSTKQQQLYIGSTAGVAQLPLHRCDIYGKACAECCLARDPYCAWDGSACSRYFPTAKRRTRRQDIRNGDPLTHCSDLHHDNHHGHSPEERIIYGVENSSTFLECSPKSQRALVYWQFQRRNEERKEEIRVDDHIIRTDQGLLLRSLQQKDSGNYLCHAVEHGFIQTLLKVTLEVIDTEHLEELLHKDDDGDGSKTKEMSNSMTPSQKVWYRDFMQLINHPNLNTMDEFCEQVWKRDRKQRRQRPGHTPGNSNKWKHLQENKKGRNRRTHEFERAPRSV", "values": [
      {"measurement": "concentration inducing growth cone retraction", "result": 10, "unit": "pM"}
    ]}
  ]
}
